# Data published in PMC10024175, “Structuring supramolecular hyaluronan hydrogels via peptide self-assembly for modulating the cell microenvironment” (Materials Today Bio, 2023).
# B1: (KI)6K peptide (peptide)
# peptide: Ac-KIKIKIKIKIKIK-NH2
# notes: rationally designed cationic amphipathic peptide; Synthesised on a rink amide MBHA resin, so the C-terminus is probably an amide (surmised); source: synthetic peptide (Fmoc solid-phase synthesis, purified by preparative RP-HPLC)
# B2: (KI)3K peptide (peptide)
# peptide: Ac-KIKIKIK-NH2
# notes: as for B1
# B3: (KI)5K peptide (peptide)
# peptide: Ac-KIKIKIKIKIK-NH2
# notes: as for B1
# B4: (KI)4K peptide (peptide)
# peptide: Ac-KIKIKIKIK-NH2
# notes: as for B1
# B5: (KI)2K peptide (peptide)
# peptide: Ac-KIKIK-NH2
# notes: as for B1
# Key:
# [1] = molecular target: the molecule itself; test: FTIR spectroscopy; 10 mM peptide in D2O, pH 7, NaCl 0, 50, 100, 200, 300 and 400 mM; beta-sheet formation read as self-assembly
# [2] = molecular target: the molecule itself; test: transmission electron microscopy; 1 mM peptide in deionized water, pH 11 (NH4OH), negative staining with uranyl acetate, dried on the grid
# [3] = molecular target: the molecule itself; test: zeta potential; 1 mM peptide in ultrapure water, neutral pH; self-association of the peptide
Protein,binding result [2],other results
B1,,binding result [1]: binds
B2,binds,
B3,,binding result [3]: binds
B4,binds,
B5,binds,
